The assay has as its target T1, dipeptidyl peptidase 4 (DPP-4) (UniProt P27487 39-766, limits assumed).
T1 construct: also called adenosine deaminase complexing protein 2; CD26
As to the kind of experiment: inhibition of DPP-4 cleavage of the chromogenic substrate Gly-Pro-pNA.

The values below come from patent US20240239860A1 (University of Pennsylvania, published 2024).

T1 sequence (P27487 39-766 limits assumed): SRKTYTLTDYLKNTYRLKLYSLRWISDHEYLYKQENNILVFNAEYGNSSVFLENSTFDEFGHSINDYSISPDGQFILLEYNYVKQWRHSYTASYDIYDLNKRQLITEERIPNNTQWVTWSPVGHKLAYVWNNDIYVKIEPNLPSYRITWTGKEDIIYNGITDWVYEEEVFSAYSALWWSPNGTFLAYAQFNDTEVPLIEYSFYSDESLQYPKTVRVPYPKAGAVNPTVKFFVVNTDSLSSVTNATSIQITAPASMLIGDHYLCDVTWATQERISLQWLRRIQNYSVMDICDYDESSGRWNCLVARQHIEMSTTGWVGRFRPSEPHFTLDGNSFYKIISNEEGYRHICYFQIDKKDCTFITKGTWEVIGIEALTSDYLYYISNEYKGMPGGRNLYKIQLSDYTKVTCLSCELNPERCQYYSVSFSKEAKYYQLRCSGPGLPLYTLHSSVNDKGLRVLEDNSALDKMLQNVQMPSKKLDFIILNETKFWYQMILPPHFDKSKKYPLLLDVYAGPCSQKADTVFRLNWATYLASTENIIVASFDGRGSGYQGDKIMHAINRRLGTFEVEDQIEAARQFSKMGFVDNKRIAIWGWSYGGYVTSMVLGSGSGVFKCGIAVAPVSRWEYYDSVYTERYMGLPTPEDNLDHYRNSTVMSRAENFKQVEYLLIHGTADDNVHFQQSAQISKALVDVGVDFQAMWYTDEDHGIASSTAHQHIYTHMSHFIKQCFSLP

B1: thio GLP-1 (GLP-1 7-36 with a thioamide at the Ala8-Glu9 scissile bond) (peptide)
peptide: HXEGTFTSDVSSYLEGQAAKEFIAWLVKGR
modifications: thioamide (C=S in place of C=O) at Ala8 (second residue of the peptide), i.e. the bond between Ala8 and Glu9; printed HA*EGTF...
notes: C-terminal amide is called optional; also called GLP-1-A^s8; thioamide-modified GLP-1
As for B1, the binding result is listed as “no binding (tested: 100 µM)”.
